From patent JP2014141434A (dated 2014)

Experiments:
Experiment in all cases: flow cytometry, transfected HEK293 cells, 10 μg/mL
[1] = molecular target: T1, N末端FLAG−tag付加型全長ヒトROBO4 hROBO4−28 (human, UniProt Q8WZ75 28-1007)
T1 construct: On HEK293 cells; also called pCI−FLAG−hROBO4−28
T1 sequence: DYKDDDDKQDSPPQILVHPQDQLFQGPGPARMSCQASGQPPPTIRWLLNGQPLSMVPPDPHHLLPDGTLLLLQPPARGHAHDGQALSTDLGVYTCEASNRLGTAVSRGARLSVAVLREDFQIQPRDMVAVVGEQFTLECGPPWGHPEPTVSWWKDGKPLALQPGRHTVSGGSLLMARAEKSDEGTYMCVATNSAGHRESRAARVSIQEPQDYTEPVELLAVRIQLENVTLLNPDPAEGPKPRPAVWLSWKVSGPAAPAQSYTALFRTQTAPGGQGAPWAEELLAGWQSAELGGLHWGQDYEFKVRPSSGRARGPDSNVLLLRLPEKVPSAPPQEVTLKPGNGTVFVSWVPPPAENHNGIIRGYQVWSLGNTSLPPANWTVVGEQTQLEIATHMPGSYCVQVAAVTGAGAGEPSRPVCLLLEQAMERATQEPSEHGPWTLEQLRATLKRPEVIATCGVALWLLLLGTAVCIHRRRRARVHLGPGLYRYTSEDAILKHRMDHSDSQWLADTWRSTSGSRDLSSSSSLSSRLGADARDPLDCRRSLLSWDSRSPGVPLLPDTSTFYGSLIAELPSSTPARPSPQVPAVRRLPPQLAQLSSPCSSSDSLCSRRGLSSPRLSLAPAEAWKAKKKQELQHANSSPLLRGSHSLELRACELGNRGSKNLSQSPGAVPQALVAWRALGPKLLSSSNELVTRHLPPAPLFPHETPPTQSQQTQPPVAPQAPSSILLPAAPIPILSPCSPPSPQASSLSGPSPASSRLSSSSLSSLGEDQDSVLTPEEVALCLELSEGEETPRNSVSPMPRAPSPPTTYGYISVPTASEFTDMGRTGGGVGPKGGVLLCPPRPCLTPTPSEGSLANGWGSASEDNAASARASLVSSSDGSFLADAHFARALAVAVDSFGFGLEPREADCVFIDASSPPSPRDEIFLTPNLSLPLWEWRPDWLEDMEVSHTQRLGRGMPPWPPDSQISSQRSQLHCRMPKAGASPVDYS

[2] = molecular target: T2, N末端FLAG−tag付加型ヒトROBO4細胞外領域ドメイン欠損体 hROBO4−132 (human, UniProt Q8WZ75 132-1007)
T2 construct: On HEK293 cells; also called pCI−FLAG−hROBO4−132; pCI−hROBO4−132
T2 sequence: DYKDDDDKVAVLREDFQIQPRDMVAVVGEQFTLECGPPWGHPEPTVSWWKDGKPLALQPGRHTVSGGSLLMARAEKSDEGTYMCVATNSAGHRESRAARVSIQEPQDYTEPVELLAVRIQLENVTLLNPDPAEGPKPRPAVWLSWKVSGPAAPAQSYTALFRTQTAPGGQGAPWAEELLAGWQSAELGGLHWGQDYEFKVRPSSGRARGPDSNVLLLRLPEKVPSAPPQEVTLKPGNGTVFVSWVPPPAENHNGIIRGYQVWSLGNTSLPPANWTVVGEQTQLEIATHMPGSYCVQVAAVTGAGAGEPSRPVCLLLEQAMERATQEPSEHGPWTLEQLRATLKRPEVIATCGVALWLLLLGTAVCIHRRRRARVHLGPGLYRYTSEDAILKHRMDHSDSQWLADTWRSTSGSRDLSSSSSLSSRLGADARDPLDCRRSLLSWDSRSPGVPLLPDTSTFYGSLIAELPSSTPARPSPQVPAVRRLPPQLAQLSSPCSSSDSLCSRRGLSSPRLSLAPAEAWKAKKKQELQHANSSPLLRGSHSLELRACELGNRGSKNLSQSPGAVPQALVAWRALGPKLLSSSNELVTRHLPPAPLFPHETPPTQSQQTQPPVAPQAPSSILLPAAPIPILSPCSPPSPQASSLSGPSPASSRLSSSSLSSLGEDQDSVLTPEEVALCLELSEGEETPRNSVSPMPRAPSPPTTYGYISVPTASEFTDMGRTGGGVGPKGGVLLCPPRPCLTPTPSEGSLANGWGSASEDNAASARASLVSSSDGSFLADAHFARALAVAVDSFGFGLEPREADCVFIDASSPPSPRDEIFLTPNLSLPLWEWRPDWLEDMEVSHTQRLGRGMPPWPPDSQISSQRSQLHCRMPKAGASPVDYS

[3] = molecular target: T3, N末端FLAG−tag付加型カニクイザルROBO4 cynoROBO4−2 (cynomolgus monkey, UniProt Q8WZ75 28-1007 (human entry))
T3 construct: also called pCI−FLAG−cynoROBO4−2
T3 chain: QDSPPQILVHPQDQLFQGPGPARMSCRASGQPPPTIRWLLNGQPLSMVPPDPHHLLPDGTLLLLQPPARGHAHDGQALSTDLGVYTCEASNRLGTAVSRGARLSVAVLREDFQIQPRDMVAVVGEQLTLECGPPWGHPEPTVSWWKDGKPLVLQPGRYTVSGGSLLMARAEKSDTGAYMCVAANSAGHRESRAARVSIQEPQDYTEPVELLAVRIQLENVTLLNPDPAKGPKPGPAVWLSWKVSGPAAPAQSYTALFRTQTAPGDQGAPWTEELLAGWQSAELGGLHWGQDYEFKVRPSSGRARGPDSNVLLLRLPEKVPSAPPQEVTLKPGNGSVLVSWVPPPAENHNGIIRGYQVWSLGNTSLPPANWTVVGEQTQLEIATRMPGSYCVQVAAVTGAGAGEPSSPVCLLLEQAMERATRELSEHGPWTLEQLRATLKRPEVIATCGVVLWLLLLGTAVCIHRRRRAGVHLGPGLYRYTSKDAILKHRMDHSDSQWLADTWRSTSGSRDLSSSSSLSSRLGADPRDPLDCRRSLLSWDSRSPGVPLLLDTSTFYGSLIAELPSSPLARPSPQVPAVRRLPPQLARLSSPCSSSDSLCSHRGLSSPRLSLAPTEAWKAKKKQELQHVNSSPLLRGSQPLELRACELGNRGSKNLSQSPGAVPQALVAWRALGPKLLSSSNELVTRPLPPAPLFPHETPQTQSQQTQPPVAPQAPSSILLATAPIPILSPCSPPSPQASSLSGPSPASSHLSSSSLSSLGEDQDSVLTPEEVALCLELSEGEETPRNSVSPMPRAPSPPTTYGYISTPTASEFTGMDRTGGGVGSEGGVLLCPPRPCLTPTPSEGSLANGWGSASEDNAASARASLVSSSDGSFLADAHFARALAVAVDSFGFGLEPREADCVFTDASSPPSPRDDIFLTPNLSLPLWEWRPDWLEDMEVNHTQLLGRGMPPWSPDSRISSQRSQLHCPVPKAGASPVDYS

Measured: binding result

B1: 抗ROBO4マウスモノクローナル抗体 MAb1 (antibody, V domains shown)
VH: EVQLVESGGGLVKPGGSLKLSCAASGFTFSTYAMSWVRQTPEKRLEWVATISNGGTYTYYPDSVKGRFTISRDNAENTLYLQMSSLRSEDTAMYFCARLIYYDYLDYWGHGTTLTVSS
VL: DAVMTQTPLSLPVSLGDQASISCRSSQSLENSNGNTYLNWYFQKPGQSPQLLIYRVSNRFSGVLDRFSGSGSGTDFTLKISRVEAEDFGVYFCLQVTHVPWTFGGGTKLEIKR
notes: Mouse IgG1 (gamma 1) / kappa from a hybridoma; The constant regions are not in the listing; also called MAb1
binds: [1] | [2] | [3]
